What follows are sequences tested against EPHB2 (UniProt P29323) (assay: phosphorylation enrichment, bacterial display (enrichment ratio); higher = better substrate or ligand; peptides without Tyr show the background).
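Note: 11-residue human phosphosite peptides and single-mutation variants displayed on the E. coli surface, counted by deep sequencing, each peptide's frequency after selection divided by its frequency in the unselected input library; frequency after pTyr selection over input frequency; kinase dosed for 20-30% of maximal phosphorylation in three min.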

Sequence of EPHB2 (P29323 whole entry, looked up): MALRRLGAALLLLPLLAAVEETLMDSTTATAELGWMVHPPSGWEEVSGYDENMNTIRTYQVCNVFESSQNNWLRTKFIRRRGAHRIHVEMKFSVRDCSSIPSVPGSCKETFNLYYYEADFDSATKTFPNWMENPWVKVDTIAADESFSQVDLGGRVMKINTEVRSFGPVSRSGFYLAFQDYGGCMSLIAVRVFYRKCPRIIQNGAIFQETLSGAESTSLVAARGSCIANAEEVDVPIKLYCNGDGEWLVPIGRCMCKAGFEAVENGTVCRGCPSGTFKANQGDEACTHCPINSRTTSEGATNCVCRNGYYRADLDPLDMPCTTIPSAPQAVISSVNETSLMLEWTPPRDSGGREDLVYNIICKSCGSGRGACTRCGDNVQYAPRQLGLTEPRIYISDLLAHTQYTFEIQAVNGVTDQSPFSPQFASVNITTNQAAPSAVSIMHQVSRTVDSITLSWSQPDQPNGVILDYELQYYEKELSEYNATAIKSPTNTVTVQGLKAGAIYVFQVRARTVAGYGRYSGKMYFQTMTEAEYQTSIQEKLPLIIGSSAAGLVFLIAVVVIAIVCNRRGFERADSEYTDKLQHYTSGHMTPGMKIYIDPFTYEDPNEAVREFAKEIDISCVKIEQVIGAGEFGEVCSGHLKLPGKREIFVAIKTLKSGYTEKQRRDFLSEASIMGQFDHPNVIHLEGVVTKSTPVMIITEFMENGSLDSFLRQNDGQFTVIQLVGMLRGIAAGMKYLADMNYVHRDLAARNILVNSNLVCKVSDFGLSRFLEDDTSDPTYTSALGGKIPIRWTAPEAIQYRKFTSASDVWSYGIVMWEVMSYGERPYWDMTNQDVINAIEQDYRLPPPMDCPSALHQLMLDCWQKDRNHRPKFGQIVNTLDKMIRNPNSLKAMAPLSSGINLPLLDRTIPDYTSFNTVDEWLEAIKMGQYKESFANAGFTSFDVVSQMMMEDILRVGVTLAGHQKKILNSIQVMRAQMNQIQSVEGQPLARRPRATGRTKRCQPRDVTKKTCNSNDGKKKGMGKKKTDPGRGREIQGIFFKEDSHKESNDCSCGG

Row | Sequence | phosphorylation enrichment
1 | AFGTVYKGLWI [EGFR_Y727] | 0.587
2 | EYGRRYGFSRQ [CCDC93_Y209] | 0.393
3 | RLASVYTKRCS [CPT2_Y508_P504L] | 0.501
4 | TLQVMYGCDVG [HLA-B_Y123_S121V] | 0.56
5 | PVEAAYQKVVA [HBB_Y131_Q128E] | 0.401
6 | LYSINYLHFGE [KDM4C_Y201] | 9.01
7 | SSVKLYRVYCD [FGB_Y266_P265L] | 0.634
8 | VTVLDYDKTGK [SYT1_Y365_I368T] | 0.46
9 | HFGCVYHGTLL [MET_Y1093] | 0.991
10 | REGAKYVSHGT [ASS1_Y113_A118T] | 0.587
11 | SLLVVYPWTQR [HBB_Y36_R31S] | 0.544
12 | WQQQSYLDSEI [CTNNB1_Y30_G34E] | 0.557
13 | PVKSEYSSIKL [NPC2_Y119_P120S] | 0.533
14 | QKKPCYEIRWK [PDGFRB_Y562_R561C] | 1.48
15 | VEFAKYGSLQG [RET_Y809_R813Q_YF] | 0.471
16 | SIKDKHVTALY [KCNH2_Y611_Y611H] | 0.405
17 | KNNDGYIDYAE [MCFD2_Y135] | 0.658

Row | Sequence | phosphorylation enrichment
18 | EEGENYQKGEQ [CHGB_Y173_R178Q] | 0.63
19 | EDSEYYRAFEE [CASQ2_Y179_K180R] | 0.724
20 | SYDLDYDSVQP [MYC_Y16_N11S] | 1.73
21 | SNKLFYQLEQE [PDPR_Y110_YF] | 0.738
22 | GCAGKYIAMVM [CYP19A1_Y441] | 0.474
23 | FEEDPYLVVNP [MCM6_Y810_YF] | 0.6
24 | DLAHKYHGGGG [HBB_Y146_A141D] | 0.392
25 | AIIGIYILRDN [CDH23_Y2949_D2954N] | 0.631
26 | NTDETYCIDNE [TUBB2B_Y200] | 0.797
27 | LFSINYLHFGE [KDM4C_Y201_YF] | 0.661
28 | QGIPRYHSQSP [FOXF1_Y331] | 0.849
29 | RDLEQYVNNVN [PCDH19_Y1097] | 0.625
30 | KEEEDYKEENN [BMS1_Y651] | 0.554
31 | SISLKYEGRVF [ABL1_Y167_R166K_YF] | 0.609
32 | TIQMMYGCDVG [HLA-A_Y123_I121M] | 0.555
33 | KIDAKYKKKIE [WDR19_Y1230] | 0.373

What follows are sequences tested against FGFR1 (UniProt P11362) in the same assay as above.
Sequence of FGFR1 (P11362 whole entry, looked up): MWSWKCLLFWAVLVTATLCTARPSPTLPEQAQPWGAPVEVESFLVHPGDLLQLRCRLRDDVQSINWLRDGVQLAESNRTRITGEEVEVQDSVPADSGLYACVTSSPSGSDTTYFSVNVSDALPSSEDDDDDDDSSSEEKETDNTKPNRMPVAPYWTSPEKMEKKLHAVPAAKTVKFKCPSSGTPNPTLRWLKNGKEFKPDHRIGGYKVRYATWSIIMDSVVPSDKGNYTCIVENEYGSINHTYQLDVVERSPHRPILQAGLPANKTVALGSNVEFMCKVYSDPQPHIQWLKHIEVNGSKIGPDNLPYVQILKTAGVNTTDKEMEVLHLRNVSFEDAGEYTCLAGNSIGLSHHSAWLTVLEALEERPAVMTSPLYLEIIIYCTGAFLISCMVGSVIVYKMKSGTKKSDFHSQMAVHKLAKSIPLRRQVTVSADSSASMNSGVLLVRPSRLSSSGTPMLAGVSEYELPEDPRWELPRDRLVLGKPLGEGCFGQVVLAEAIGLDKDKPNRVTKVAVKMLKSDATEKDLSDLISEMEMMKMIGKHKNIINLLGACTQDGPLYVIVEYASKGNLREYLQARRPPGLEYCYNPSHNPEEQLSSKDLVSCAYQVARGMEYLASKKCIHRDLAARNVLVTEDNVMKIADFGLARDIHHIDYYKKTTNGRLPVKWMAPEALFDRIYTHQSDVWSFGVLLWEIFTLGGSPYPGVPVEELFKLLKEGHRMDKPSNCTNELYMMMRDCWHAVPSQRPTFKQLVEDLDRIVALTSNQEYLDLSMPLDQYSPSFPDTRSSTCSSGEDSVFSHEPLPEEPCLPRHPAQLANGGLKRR

Row | Sequence | phosphorylation enrichment
34 | AFGTVYKGLWI [EGFR_Y727] | 0.517
35 | EYGRRYGFSRQ [CCDC93_Y209] | 0.389
36 | RLASVYTKRCS [CPT2_Y508_P504L] | 0.4
37 | TLQVMYGCDVG [HLA-B_Y123_S121V] | 0.596
38 | PVEAAYQKVVA [HBB_Y131_Q128E] | 0.573
39 | LYSINYLHFGE [KDM4C_Y201] | 3.6
40 | SSVKLYRVYCD [FGB_Y266_P265L] | 0.459
41 | VTVLDYDKTGK [SYT1_Y365_I368T] | 0.463
42 | HFGCVYHGTLL [MET_Y1093] | 1.04
43 | REGAKYVSHGT [ASS1_Y113_A118T] | 0.493
44 | SLLVVYPWTQR [HBB_Y36_R31S] | 0.438
45 | WQQQSYLDSEI [CTNNB1_Y30_G34E] | 0.397
46 | PVKSEYSSIKL [NPC2_Y119_P120S] | 0.518
47 | QKKPCYEIRWK [PDGFRB_Y562_R561C] | 0.914
48 | VEFAKYGSLQG [RET_Y809_R813Q_YF] | 0.43
49 | SIKDKHVTALY [KCNH2_Y611_Y611H] | 0.408
50 | KNNDGYIDYAE [MCFD2_Y135] | 0.606

Row | Sequence | phosphorylation enrichment
51 | EEGENYQKGEQ [CHGB_Y173_R178Q] | 0.637
52 | EDSEYYRAFEE [CASQ2_Y179_K180R] | 0.937
53 | SYDLDYDSVQP [MYC_Y16_N11S] | 0.589
54 | SNKLFYQLEQE [PDPR_Y110_YF] | 0.588
55 | GCAGKYIAMVM [CYP19A1_Y441] | 0.44
56 | FEEDPYLVVNP [MCM6_Y810_YF] | 1.23
57 | DLAHKYHGGGG [HBB_Y146_A141D] | 0.43
58 | AIIGIYILRDN [CDH23_Y2949_D2954N] | 0.604
59 | NTDETYCIDNE [TUBB2B_Y200] | 0.64
60 | LFSINYLHFGE [KDM4C_Y201_YF] | 0.902
61 | QGIPRYHSQSP [FOXF1_Y331] | 0.821
62 | RDLEQYVNNVN [PCDH19_Y1097] | 0.476
63 | KEEEDYKEENN [BMS1_Y651] | 0.468
64 | SISLKYEGRVF [ABL1_Y167_R166K_YF] | 0.482
65 | TIQMMYGCDVG [HLA-A_Y123_I121M] | 0.561
66 | KIDAKYKKKIE [WDR19_Y1230] | 0.368

Each sequence was assayed on c-Src in the same assay as above.

Row | Sequence | phosphorylation enrichment
67 | AFGTVYKGLWI [EGFR_Y727] | 0.619
68 | EYGRRYGFSRQ [CCDC93_Y209] | 0.419
69 | RLASVYTKRCS [CPT2_Y508_P504L] | 0.557
70 | TLQVMYGCDVG [HLA-B_Y123_S121V] | 0.589
71 | PVEAAYQKVVA [HBB_Y131_Q128E] | 0.517
72 | LYSINYLHFGE [KDM4C_Y201] | 2.56
73 | SSVKLYRVYCD [FGB_Y266_P265L] | 0.525
74 | VTVLDYDKTGK [SYT1_Y365_I368T] | 0.398
75 | HFGCVYHGTLL [MET_Y1093] | 4.11
76 | REGAKYVSHGT [ASS1_Y113_A118T] | 0.411
77 | SLLVVYPWTQR [HBB_Y36_R31S] | 0.36
78 | WQQQSYLDSEI [CTNNB1_Y30_G34E] | 0.421
79 | PVKSEYSSIKL [NPC2_Y119_P120S] | 0.602
80 | QKKPCYEIRWK [PDGFRB_Y562_R561C] | 0.361
81 | VEFAKYGSLQG [RET_Y809_R813Q_YF] | 0.546
82 | SIKDKHVTALY [KCNH2_Y611_Y611H] | 0.44
83 | KNNDGYIDYAE [MCFD2_Y135] | 0.465

Row | Sequence | phosphorylation enrichment
84 | EEGENYQKGEQ [CHGB_Y173_R178Q] | 0.545
85 | EDSEYYRAFEE [CASQ2_Y179_K180R] | 0.754
86 | SYDLDYDSVQP [MYC_Y16_N11S] | 0.796
87 | SNKLFYQLEQE [PDPR_Y110_YF] | 1.91
88 | GCAGKYIAMVM [CYP19A1_Y441] | 0.414
89 | FEEDPYLVVNP [MCM6_Y810_YF] | 2.65
90 | DLAHKYHGGGG [HBB_Y146_A141D] | 0.388
91 | AIIGIYILRDN [CDH23_Y2949_D2954N] | 1.68
92 | NTDETYCIDNE [TUBB2B_Y200] | 0.809
93 | LFSINYLHFGE [KDM4C_Y201_YF] | 0.528
94 | QGIPRYHSQSP [FOXF1_Y331] | 1.08
95 | RDLEQYVNNVN [PCDH19_Y1097] | 0.541
96 | KEEEDYKEENN [BMS1_Y651] | 0.453
97 | SISLKYEGRVF [ABL1_Y167_R166K_YF] | 0.398
98 | TIQMMYGCDVG [HLA-A_Y123_I121M] | 0.513
99 | KIDAKYKKKIE [WDR19_Y1230] | 0.346

What follows are sequences tested against Fes (UniProt P07332) in the same assay as above.
Sequence of Fes (P07332 whole entry, looked up): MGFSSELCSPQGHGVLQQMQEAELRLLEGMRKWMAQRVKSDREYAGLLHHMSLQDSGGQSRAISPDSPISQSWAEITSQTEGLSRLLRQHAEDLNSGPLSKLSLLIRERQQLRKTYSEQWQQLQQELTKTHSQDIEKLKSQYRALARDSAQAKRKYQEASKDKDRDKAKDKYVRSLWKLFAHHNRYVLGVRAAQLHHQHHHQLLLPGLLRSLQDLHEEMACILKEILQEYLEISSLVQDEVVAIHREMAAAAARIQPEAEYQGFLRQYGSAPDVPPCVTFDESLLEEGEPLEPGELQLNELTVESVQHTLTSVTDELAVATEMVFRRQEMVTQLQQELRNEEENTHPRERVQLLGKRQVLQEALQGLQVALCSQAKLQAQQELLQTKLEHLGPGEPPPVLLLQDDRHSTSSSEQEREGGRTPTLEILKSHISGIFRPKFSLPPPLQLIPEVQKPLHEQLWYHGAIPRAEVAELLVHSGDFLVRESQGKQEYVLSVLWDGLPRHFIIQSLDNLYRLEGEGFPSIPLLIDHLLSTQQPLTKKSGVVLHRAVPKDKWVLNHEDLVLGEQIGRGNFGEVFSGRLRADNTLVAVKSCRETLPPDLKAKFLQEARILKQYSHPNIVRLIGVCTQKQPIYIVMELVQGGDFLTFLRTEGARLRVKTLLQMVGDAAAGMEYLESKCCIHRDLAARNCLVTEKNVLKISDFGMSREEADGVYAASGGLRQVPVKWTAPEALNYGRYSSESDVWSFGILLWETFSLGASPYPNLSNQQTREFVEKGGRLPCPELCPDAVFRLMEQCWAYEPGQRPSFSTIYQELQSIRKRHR

Row | Sequence | phosphorylation enrichment
100 | AFGTVYKGLWI [EGFR_Y727] | 1.13
101 | EYGRRYGFSRQ [CCDC93_Y209] | 0.646
102 | RLASVYTKRCS [CPT2_Y508_P504L] | 0.889
103 | TLQVMYGCDVG [HLA-B_Y123_S121V] | 1.23
104 | PVEAAYQKVVA [HBB_Y131_Q128E] | 0.695
105 | LYSINYLHFGE [KDM4C_Y201] | 1.57
106 | SSVKLYRVYCD [FGB_Y266_P265L] | 1.22
107 | VTVLDYDKTGK [SYT1_Y365_I368T] | 0.712
108 | HFGCVYHGTLL [MET_Y1093] | 1.67
109 | REGAKYVSHGT [ASS1_Y113_A118T] | 0.969
110 | SLLVVYPWTQR [HBB_Y36_R31S] | 1.01
111 | WQQQSYLDSEI [CTNNB1_Y30_G34E] | 0.854
112 | PVKSEYSSIKL [NPC2_Y119_P120S] | 1.06
113 | QKKPCYEIRWK [PDGFRB_Y562_R561C] | 1.03
114 | VEFAKYGSLQG [RET_Y809_R813Q_YF] | 0.9
115 | SIKDKHVTALY [KCNH2_Y611_Y611H] | 0.61
116 | KNNDGYIDYAE [MCFD2_Y135] | 1.13

Row | Sequence | phosphorylation enrichment
117 | EEGENYQKGEQ [CHGB_Y173_R178Q] | 1.28
118 | EDSEYYRAFEE [CASQ2_Y179_K180R] | 1.6
119 | SYDLDYDSVQP [MYC_Y16_N11S] | 1.21
120 | SNKLFYQLEQE [PDPR_Y110_YF] | 1.39
121 | GCAGKYIAMVM [CYP19A1_Y441] | 1.07
122 | FEEDPYLVVNP [MCM6_Y810_YF] | 1.46
123 | DLAHKYHGGGG [HBB_Y146_A141D] | 0.473
124 | AIIGIYILRDN [CDH23_Y2949_D2954N] | 1.39
125 | NTDETYCIDNE [TUBB2B_Y200] | 1.57
126 | LFSINYLHFGE [KDM4C_Y201_YF] | 1.6
127 | QGIPRYHSQSP [FOXF1_Y331] | 1.58
128 | RDLEQYVNNVN [PCDH19_Y1097] | 1.01
129 | KEEEDYKEENN [BMS1_Y651] | 1.06
130 | SISLKYEGRVF [ABL1_Y167_R166K_YF] | 1.31
131 | TIQMMYGCDVG [HLA-A_Y123_I121M] | 1.38
132 | KIDAKYKKKIE [WDR19_Y1230] | 0.891

— the supplement of paper PMC10065799, “High-throughput profiling of sequence recognition by tyrosine kinases and SH2 domains using bacterial peptide display” (eLife, 2023)
